How the values were obtained:
[1] = target: ARNT PAS-B (Homo sapiens) (UniProt P27540); assay: NMR; details: cited from earlier work
[2] = target: Drosophila PERIOD fragment lacking helix αF, dPERΔαF[232–538] (Drosophila melanogaster) (UniProt P07663); assay: AUC; sedimentation equilibrium, interference optics, 10 °C, 25 mM HEPES pH 7.7, 100 mM NaCl, 2 mM DTE; four starting concentrations from stocks of 0.8–2 mg/ml; dimer to monomers, K D = 1/K A

Sequence of ARNT PAS-B (P27540 356-470): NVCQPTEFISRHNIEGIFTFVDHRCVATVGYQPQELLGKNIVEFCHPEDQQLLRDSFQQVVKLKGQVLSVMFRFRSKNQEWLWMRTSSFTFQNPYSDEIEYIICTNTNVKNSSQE
Sequence of HIF-2α PAS-B (Q99814 239-350): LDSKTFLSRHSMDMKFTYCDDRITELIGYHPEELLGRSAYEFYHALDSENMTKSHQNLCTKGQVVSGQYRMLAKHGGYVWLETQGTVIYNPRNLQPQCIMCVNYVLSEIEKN

| Kd [2] [µM] | Substance | Kd [1] [µM] |
| --- | --- | --- |
|  | ARNT PAS-B (from UniProt P27540) | 500 |
| 256 | Drosophila PERIOD fragment lacking helix αF, dPERΔαF[232–538] (from UniProt P07663 232-538) (domain or fragment) |  |
|  | HIF-2α PAS-B (from UniProt Q99814) | 30 |
